Columns and labels:
[1] = biological target: T1, 0N4 R tau P301 mutated to alanine (human, UniProt P10636 1-758); assay: flow cytometry on fixed, permeabilised Expi293 cells expressing the mutant, 10 µg/ml VR7082
T1 construct: also called P301A
Protocol: (§1) Upon receipt of the constructs, single constructs were transiently transfected into Expi293 cells (Thermo-Fisher) according to the instructions from the manufacturer. The cells were incubated at 38° C., shaking at 220 RPM, in a humidified 5% CO2 environment. Following a 48 hour incubation, the cells were harvested via centrifugation at 350 G(av) for 10 minutes. The cells were fixed and permeabilized with Invitrogens Fix and Perm kit, according to the instructions from the manufacturers. […] The cells were incubated on ice for 30 minutes before being washed in PBS+1% BSA and resuspended in 50 μl/well.
(§2) The cells were run on an IQue3 and tau containing cells were gated via the alexa-488 fluorescence from HT7 and tau binding assessed via alexa-647 staining. The data was normalised and expressed as a percentage of the binding signal observed for not-mutated tau.

[2] = biological target: T2, 0N4 R tau G302 mutated to alanine (human, UniProt P10636 1-758); assay: as above
T2 construct: also called G302A
Protocol: as §1, §2

1N4 R tau [3] = biological target: T3, 1N4 R tau (human, UniProt P10636-7 1-412); assay: ELISA, antibody titrated about 3 to 10000 ng/ml on tau isoform coated directly onto the plate, OD 630 nm
T3 construct: One of the six recombinantly expressed tau isoforms

2N4 R tau [4] = biological target: T4, 2N4 R tau (human, UniProt P10636 2-758); assay: as above
T4 construct: also called largest human isoform of tau

1N3 R tau [5] = biological target: T5, 1N3 R tau (human, UniProt P10636-4 1-381); assay: as above
T5 construct: One of the six recombinantly expressed tau isoforms

0N3 R tau [6] = biological target: T6, 0N3 R tau (human, UniProt P10636-2 1-352); assay: as above
T6 construct: Used as recombinant protein (ELISA), overexpressed in cells (flow cytometry, Western blot, immunofluorescence) and native in iPSC derived neurons; also called 3 R tau (iPSC derived neurons express 0N3 R tau)

2N3 R tau [7] = biological target: T7, 2N3 R tau (human, UniProt P10636-5 1-410); assay: as above
T7 construct: One of the six recombinantly expressed tau isoforms

1N4 R tau [8] = biological target: T3, 1N4 R tau; assay: flow cytometry, antibody titrated about 3 to 10000 ng/ml on cells with intracellularly expressed tau isoform, geomean AF647 of transfected cells
1N3 R tau [9] = biological target: T5, 1N3 R tau; assay: as above
0N3 R tau [10] = biological target: T6, 0N3 R tau; assay: as above
2N3 R tau [11] = biological target: T7, 2N3 R tau; assay: as above
2N4 R tau [12] = biological target: T4, 2N4 R tau; assay: ELISA, antibody titrated about 3 to 10000 ng/ml on tau isoform coated directly onto the plate, OD 630 nm; remark: listed apart in the source
1N4 R tau [13] = biological target: T3, 1N4 R tau; assay: Western blot of lysates of cells overexpressing a single tau isoform, probed with the mouse IgG format
2N4 R tau [14] = biological target: T4, 2N4 R tau; assay: as above
1N3 R tau [15] = biological target: T5, 1N3 R tau; assay: as above
0N3 R tau [16] = biological target: T6, 0N3 R tau; assay: as above
2N3 R tau [17] = biological target: T7, 2N3 R tau; assay: as above
1N4 R tau [18] = biological target: T3, 1N4 R tau; assay: flow cytometry, scFv-Ms-Fc titrated about 3 to 10000 ng/ml on cells transfected with the tau isoform, mean fluorescence of transfected cells
0N4 R tau = biological target: T8, 0N4 R tau (human, UniProt P10636-6 1-383); assay: as above
T8 construct: Used as recombinant protein (ELISA), overexpressed in cells and native in 10+16 MAPT mutant iPSC derived neurons; also called unmutated 0N4 R tau; 4 R tau (10+16 MAPT mutant neurons express 0N4 R tau)

2N4 R tau [19] = biological target: T4, 2N4 R tau; assay: as above
1N3 R tau [20] = biological target: T5, 1N3 R tau; assay: ELISA, scFv-Ms-Fc titrated about 3 to 10000 ng/ml on coated tau isoform, OD 630 nm
0N3 R tau [21] = biological target: T6, 0N3 R tau; assay: as above
2N3 R tau [22] = biological target: T7, 2N3 R tau; assay: as above
1N4 R tau [23] = biological target: T3, 1N4 R tau; assay: Western blot of lysates of cells overexpressing a single tau isoform, probed with the mouse IgG format; remark: listed apart in the source
2N4 R tau [24] = biological target: T4, 2N4 R tau; assay: as above; remark: listed apart in the source

T4 sequence (P10636 other isoform, or with tags, fused parts or gaps limits assumed): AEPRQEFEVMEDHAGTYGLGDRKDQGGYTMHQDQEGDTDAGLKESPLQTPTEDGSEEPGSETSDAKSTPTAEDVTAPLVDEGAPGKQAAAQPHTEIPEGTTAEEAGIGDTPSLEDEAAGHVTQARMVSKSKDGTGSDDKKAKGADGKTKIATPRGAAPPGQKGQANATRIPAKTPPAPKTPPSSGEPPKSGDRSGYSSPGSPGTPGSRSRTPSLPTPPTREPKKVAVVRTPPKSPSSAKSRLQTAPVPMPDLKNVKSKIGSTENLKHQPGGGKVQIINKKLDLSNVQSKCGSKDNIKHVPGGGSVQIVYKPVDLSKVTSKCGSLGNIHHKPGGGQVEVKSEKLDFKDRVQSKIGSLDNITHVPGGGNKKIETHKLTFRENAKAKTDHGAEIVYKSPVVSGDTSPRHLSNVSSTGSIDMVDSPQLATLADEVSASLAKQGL
T5 sequence (P10636 other isoform, or with tags, fused parts or gaps limits assumed): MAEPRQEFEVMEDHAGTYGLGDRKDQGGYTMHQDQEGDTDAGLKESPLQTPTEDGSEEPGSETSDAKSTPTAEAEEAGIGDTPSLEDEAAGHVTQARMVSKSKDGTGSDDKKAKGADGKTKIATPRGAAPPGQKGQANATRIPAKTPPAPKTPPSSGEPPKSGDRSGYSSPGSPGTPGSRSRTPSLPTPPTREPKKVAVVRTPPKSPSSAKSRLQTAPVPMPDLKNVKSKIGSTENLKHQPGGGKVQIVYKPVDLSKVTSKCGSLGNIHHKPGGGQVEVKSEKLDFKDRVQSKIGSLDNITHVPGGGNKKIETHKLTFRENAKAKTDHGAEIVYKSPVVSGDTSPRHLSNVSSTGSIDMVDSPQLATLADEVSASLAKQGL
T6 sequence (P10636 other isoform, or with tags, fused parts or gaps limits assumed): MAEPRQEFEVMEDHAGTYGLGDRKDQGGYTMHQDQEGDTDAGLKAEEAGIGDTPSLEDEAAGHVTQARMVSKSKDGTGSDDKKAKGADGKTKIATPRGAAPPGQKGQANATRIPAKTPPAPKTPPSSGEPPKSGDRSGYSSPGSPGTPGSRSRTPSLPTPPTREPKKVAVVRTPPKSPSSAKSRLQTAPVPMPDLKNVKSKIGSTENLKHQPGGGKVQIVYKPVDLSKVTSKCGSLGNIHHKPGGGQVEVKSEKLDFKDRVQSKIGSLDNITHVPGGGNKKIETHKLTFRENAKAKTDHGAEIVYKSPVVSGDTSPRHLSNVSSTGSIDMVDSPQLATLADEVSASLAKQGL
T3 sequence (P10636 other isoform, or with tags, fused parts or gaps limits assumed): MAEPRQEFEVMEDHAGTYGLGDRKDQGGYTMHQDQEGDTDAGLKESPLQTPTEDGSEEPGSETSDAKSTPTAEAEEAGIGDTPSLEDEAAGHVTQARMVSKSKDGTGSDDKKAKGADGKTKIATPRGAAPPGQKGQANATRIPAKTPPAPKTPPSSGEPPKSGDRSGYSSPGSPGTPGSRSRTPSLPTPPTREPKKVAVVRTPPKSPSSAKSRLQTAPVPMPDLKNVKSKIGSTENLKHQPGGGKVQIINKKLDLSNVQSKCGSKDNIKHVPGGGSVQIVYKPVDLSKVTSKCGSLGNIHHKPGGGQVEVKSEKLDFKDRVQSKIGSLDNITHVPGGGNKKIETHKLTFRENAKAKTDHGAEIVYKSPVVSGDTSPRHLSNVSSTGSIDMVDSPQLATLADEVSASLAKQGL
T7 sequence (P10636 other isoform, or with tags, fused parts or gaps limits assumed): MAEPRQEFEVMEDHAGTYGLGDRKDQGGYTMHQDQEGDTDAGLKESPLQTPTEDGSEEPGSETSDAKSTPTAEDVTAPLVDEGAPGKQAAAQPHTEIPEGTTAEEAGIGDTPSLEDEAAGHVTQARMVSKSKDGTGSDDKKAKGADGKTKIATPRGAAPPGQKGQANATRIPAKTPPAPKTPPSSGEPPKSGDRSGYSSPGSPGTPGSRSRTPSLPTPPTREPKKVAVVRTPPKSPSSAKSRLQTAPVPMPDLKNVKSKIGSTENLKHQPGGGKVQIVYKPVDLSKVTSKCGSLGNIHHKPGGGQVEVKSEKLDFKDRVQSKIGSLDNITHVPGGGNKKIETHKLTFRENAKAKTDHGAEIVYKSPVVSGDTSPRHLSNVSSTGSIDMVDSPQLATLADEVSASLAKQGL
T1 sequence (P10636 other isoform, or with tags, fused parts or gaps limits assumed, stated change not applied): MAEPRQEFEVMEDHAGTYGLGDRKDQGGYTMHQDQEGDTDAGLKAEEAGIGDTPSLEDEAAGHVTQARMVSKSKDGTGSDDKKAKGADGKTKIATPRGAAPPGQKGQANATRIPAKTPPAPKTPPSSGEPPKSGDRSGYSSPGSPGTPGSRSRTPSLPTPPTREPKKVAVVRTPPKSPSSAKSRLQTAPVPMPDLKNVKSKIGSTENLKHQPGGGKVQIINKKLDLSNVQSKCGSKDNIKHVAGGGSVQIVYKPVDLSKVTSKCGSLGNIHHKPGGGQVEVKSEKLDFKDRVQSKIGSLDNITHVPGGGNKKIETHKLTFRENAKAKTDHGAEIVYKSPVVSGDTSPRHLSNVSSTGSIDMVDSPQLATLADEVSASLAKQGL
T8 sequence (P10636 other isoform, or with tags, fused parts or gaps limits assumed, form in doubt): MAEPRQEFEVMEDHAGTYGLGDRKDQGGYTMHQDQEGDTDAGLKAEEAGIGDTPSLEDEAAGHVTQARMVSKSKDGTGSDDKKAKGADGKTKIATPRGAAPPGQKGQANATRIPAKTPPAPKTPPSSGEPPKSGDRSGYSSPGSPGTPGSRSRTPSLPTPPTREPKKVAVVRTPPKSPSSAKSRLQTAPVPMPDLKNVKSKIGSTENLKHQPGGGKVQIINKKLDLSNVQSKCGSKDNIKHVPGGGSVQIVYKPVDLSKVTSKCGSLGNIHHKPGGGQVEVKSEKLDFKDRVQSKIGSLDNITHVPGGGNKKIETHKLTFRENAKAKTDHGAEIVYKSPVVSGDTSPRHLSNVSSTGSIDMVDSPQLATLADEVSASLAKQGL
T2 sequence (P10636 other isoform, or with tags, fused parts or gaps limits assumed, stated change not applied): as the sequence (P10636 other isoform, or with tags, fused parts or gaps limits assumed, form in doubt) above, with G244A counted along it

B1: VR7082 rabbit IgG (antibody, V domains shown)
VH: QSVEESGGRLVTPGTPLTLTCTVSGIDLSNYAMIWVRQAPGEGLEYIGIISSTGNTFYATWAKGRFTISKTSTTVDLKITSPTAEDTATYFCARDTNSDSHYGWEAFNIWGPGTLVTVSS
VL: AVVLTQTPASVEAAVGGTVSINCQASEDIESYLAWYQQKPGQRPKLLIYRASTLASGVSSRFKGSGSGTEYTLTISGVECADAATYYCQEGYSIHVDNVFGGGTEVVVK
notes: Cloned and tested as full-length rabbit IgG (kappa light chain); also called clone 3; VR7082-RbIgG
[1]
  binding result: binds
[2]
  binding result: binds
1N4 R tau [3]
  binding result: binds
2N4 R tau [4]
  binding result: binds
1N3 R tau [5]
  binding result: no binding (tested: 10000 ng/ml)
0N3 R tau [6]
  binding result: no binding (tested: 10000 ng/ml)
2N3 R tau [7]
  binding result: no binding (tested: 10000 ng/ml)

B2: VR7081 rabbit IgG (antibody, V domains shown)
VH: QSLEESGGRLVTPGTPLTLTCTVSGFSLSNYAMIWVRQAPGGGLEWIGTMGTNGRTYYASWAKGRFTISKTSTTMDLSMTSLTAEDTATYFCARDAGITYSTYYFNIWGPGTLVTVSS
VL: AQVLTQTPASVSAAVGGTVSISCQSSPSVLNTNDLSWFQQKPGQPPKVLIYGASTLASGVPSRFKGSGSGTQFTLTISDVQCDDAATYYCAGGYDVNIDIYGFGGGTEVVVK
notes: Cloned and tested as full-length rabbit IgG (kappa light chain); also called clone 14; 3 R-specific antibody
1N4 R tau [8]
  binding result: no binding (tested: 10000 ng/ml)
1N3 R tau [9]
  EC50 (read off the curve): ~1 µg/mL
0N3 R tau [10]
  EC50 (read off the curve): ~0.7 µg/mL
2N3 R tau [11]
  EC50 (read off the curve): ~0.9 µg/mL
2N4 R tau [12]
  binding result: no binding (tested: 10000 ng/ml)

B3: VR7082 formatted as Mouse IgG (antibody, V domains shown)
VH: B1 VH
VL: B1 VL
notes: also called VR7082 mouse chimeric antibody
1N4 R tau [13]
  binding result: binds
2N4 R tau [14]
  binding result: binds
1N3 R tau [15]
  binding result: no binding
0N3 R tau [16]
  binding result: no binding
2N3 R tau [17]
  binding result: no binding

B4: VR7082 scFv-Ms-Fc (Fc fusion)
scFv: MAQSVEESGGRLVTPGTPLTLTCTVSGIDLSNYAMIWVRQAPGEGLEYIGIISSTGNTFYATWAKGRFTISKTSTTVDLKITSPTAEDTATYFCARDTNSDSHYGWEAFNIWGPGTLVTVSSGGGGSGGGGSGGGGSGGGGSAVVLTQTPASVEAAVGGTVSINCQASEDIESYLAWYQQKPGQRPKLLIYRASTLASGVSSRFKGSGSGTEYTLTISGVECADAATYYCQEGYSIHVDNVFGGGTEVVVK
notes: also called scFv mouse Fc conversion of VR7082; not shown: mouse Fc
1N4 R tau [18]
  EC50 (read off the curve): ~0.8 µg/mL
0N4 R tau
  EC50 (read off the curve): ~0.6 µg/mL
2N4 R tau [19]
  EC50 (read off the curve): ~0.9 µg/mL
1N3 R tau [20]
  binding result: no binding (tested: 10000 ng/ml)
0N3 R tau [21]
  binding result: no binding (tested: 10000 ng/ml)
2N3 R tau [22]
  binding result: no binding (tested: 10000 ng/ml)

B5: VR7081 formatted as Mouse IgG (antibody, V domains shown)
VH: B2 VH
VL: B2 VL
notes: also called VR7081 mouse chimeric antibody
1N4 R tau [23]
  binding result: no binding
2N4 R tau [24]
  binding result: no binding
